In patent publication US11680267B2, “Co-regulatory sequences based on tetracycline and Cumate” (Shenzhen Eureka Biotechnology Co., Ltd., priority 2020, dated 2023):

Assays:
293T-rtTA3G-CymR cells [1] = experiment: Luciferase fluorescence intensity assay, transient transfection, both DOX and Cumate vs DOX alone (Example 2); format: cell-based
Description: The experiment described in the present Example is to study and verify the effect of the position and copy number of the CuO operator in the Tet-On and Cumate complex response element on the induced expression level and non-induced leaky expression level of the complex response element, and to optimize and confirm the optimal position and copy number of the CuO operator. In the present Example, based on the 7×TetO sequence in the TRE3G response element and the minimal promoter sequence #1 (SEQ ID NO: 25), the response elements TRE3GCuO14 (10-317 bp in SEQ ID NO: 8), TRE3GCuO30 (SEQ ID NO: 28), TRE3GCuO50 (SEQ ID NO: 23) and TRE3GCuO100 (10-403 bp in SEQ ID NO: 10) were designed by linking a CuO operator sequence at 10 bp to 100 bp downstream of the TATA box (at 14 bp, 30 bp, 50 bp and 100 bp downstream of the TATA box, respectively), and a Luciferase reporter gene sequence was linked downstream of the 3′ end of the above response elements, to construct plasmids 18BF251, 18BF252, 18BF235 and 18BF253. Further, in order to study the effect of multiple copies of CuO operators, 2, 4 and 6 copies of CuO operator sequences were respectively inserted at 50 bp downstream of the TATA box, to design the response elements TRE3GCuO2x (10-411 bp in SEQ ID NO: 11), TRE3GCuO4x (10-527 bp in SEQ ID NO: 12) and TRE3GCuO6x (10-643 bp in SEQ ID NO: 13), and then a Luciferase reporter gene sequence was linked downstream of 3′ end of the above response elements to construct plasmids 18BF254, 18BF255 and 18BF256. In 293T-rtTA3G-CymR cells stably expressing rtTA3G and CymR genes, the above plasmids were transiently transfected, and the optimal position and number of CuO operator were validated by measuring the luciferase […] value of samples added with both DOX and Cumate inducers and that of the control added with the DOX inducer only. The specific experimental methods were as follows:
(§1) 293T cells were seeded at 1.5E+06 cells per 60 mm culture dish, and cultured in DMEM (Sigam, D6429) complete medium supplemented with 10% FBS (ExCell, 11H116) at 37° C. and 5% CO 2. After 24 hours of culture, transfection was carried out according to the PEI method. During transfection, 500 μL of transfection reagent which contained 5.5 ug of total plasmid was added to each 60 mm culture dish, and the mass ratio of total plasmid to PEI MAX (Polysciences, 24765-1) was 1:4. The transfection was carried out according to the PEI method, wherein the amount of total plasmid was 5.5 μg. The transfection was performed with plasmids 19BF074:18BF019 at a molar ratio of 10:1 to obtain 293T-rtTAadv-CymR cells; and the transfection was performed with plasmids 19BF075:18BF019 at a molar ratio of 10:1 to obtain 293T-rtTA3G-CymR cells. The plasmid and PEI MAX were mixed uniformly, and then put into a culture dish after standing for 15 minutes. 3 hours after transfection, the medium was changed to a complete DMEM medium, and the transfection operation was completed. After 24 hours of transfection, the cells were digested with trypsin and all seeded in a 100 mm culture dish (Corning, 430167), and 200 μg/ml of hygromycin (Sangon Biotech A600230-0001) drug screening was performed for at least three passages. After the growth of cells under the pressure of drug screening was consistent with that of the original 293T cells, the following experiments were performed.
The 293T-rtTA3G-CymR cells were seeded in a 96-well plate (Corning 3916) at 2.5E+04 cells per well, and the medium was 100 microliters of DMEM complete medium. […]

293T-rtTA3G-CymR cells [2] = experiment: Luciferase assay, transient transfection, DOX and Cumate vs no inducer (Example 3), rtTA3G cells; format: cell-based
Description: as §1
In Tet-On inducible expression system, the induced transcription activity and the leaky transcription activity were comprehensively affected by the TetO operator linking sequence of the TRE response element and the minimal promoter sequence, as well as different mutants of the transactivator rtTA. In addition, the transport and stability of messenger ribonucleic acid may be enhanced by linking a spliceable intron sequence downstream of the 3′ end of the response element and upstream of the 5′ end of the regulated nucleic acid fragment of interest, but the induced transcription activity and leaky transcription activity of response element of the inducible expression system may also be affected. Based on this, the optimal design scheme of complex response element was determined in this Example based on the induced expression level and the ratio of induced/leaky expression level of Luciferase gene under the combination of the following conditions: (1) Tet-On and Cumate complex response elements TREadvCuO and TRE3GCuO designed based on the TREadv and TRE3G response element sequences; (2) whether an intron was linked; (3) being regulated by the transactivator rtTAadv or rtTA3G. A total of 8 design schemes were compared in this Example: TREadv (18BF232), TREadvCuO (18BF233), TRE3G (18BF234), TRE3GCuO (18BF235), TREadv-BGI (18BF240, wherein the response element was TREadv, and a human β-globulin intron was linked between the 3′ end of the response element and the 5′ end of the Luciferase gene), TREadvCuO-BGI (18BF241, wherein the response element was TREadvCuO, and a human β-globulin intron was linked between the 3′ end of the response element and the 5′ end of the Luciferase gene), TRE3G-BGI (18BF236, wherein the response element was TRE3G, and a human β-globulin intron was linked between the 3′ end of the response element and the 5′ end of the Luciferase gene) and TRE3GCuO-BGI (18BF237, wherein the response element was TRE3GCuO, and a human β-globulin intron was linked between the 3′ end of the response element and the 5′ end of the Luciferase gene). The promoter CMV-BGI (18BF229, wherein the promoter was CMV, and a human β-globulin intron was linked between the 3′ end of the CMV promoter and the 5′ end of the Luciferase gene) was used as a positive control. […]

B1: TRE3GCuO: Tet-On (7xTetO of TRE3G) and Cumate complex response element, CuO 50 bp behind the TATA box (SEQ ID NO: 23) (nucleic acid)
DNA: TCCCTATCAGTGATAGAGAACGTATGAAGAGTTTACTCCCTATCAGTGATAGAGAACGTATGCAGACTTTACTCCCTATCAGTGATAGAGAACGTATAAGGAGTTTACTCCCTATCAGTGATAGAGAACGTATGACCAGTTTACTCCCTATCAGTGATAGAGAACGTATCTACAGTTTACTCCCTATCAGTGATAGAGAACGTATATCCAGTTTACTCCCTATCAGTGATAGAGAACGTATTAGGCGTGTACGGTGGGCGCCTATAAAAGCAGAGCTCGTTTAGTGAACCGTCAGATCGCCTGGAGCAATTCCACATACAAACAGACCAGATTGTCTGTTTGTT
modifications: TRE3GCuO50 response element sequence
- induced expression level as % of the induced expression level of TRE3G response element (293T-rtTA3G-CymR cells [1]; 1 ug/ml DOX and 200 ug/ml Cumate): 66.0%
- ratio of induced/leaky expression level based on Cumate inducible expression system, relative to that of TRE3G response element (293T-rtTA3G-CymR cells [1]; DOX and Cumate vs DOX only): 2.81 times
- induced expression level (293T-rtTA3G-CymR cells [1]; transient transfection, 1 ug/ml DOX and 200 ug/ml Cumate, 24 hours after transfection): 4.53E+06 RLU
- increase of induced/leaky expression ratio of TRE3GCuO over TREadvCuO (293T-rtTA3G-CymR cells [2]; 293T-rtTA3G-CymR cells): 37.6%
- induced expression level as % of the induced expression level of TRE3G (293T-rtTA3G-CymR cells [2]; 293T-rtTA3G-CymR cells / regulation of rtTA3G): 61.8%
- induced expression level (293T-rtTA3G-CymR cells [2]; 293T-rtTA3G-CymR cells, 1 ug/ml DOX and 200 ug/ml Cumate): 4.24E+06 RLU
- induced expression level as % of that of the single regulatory response element (293T-rtTA3G-CymR cells [2]; 293T-rtTA3G-CymR cells, DOX and Cumate): 61.8%
- induced/leaky expression ratio (293T-rtTA3G-CymR cells [2]; 293T-rtTA3G-CymR cells, DOX and Cumate vs no inducer): 2635 times
